The values below come from patent US20220204994A1.

Series [1] concerns B2M13-14.479 engineered meganuclease (Artificial). Briefly: cell_activity. The conditions noted are these: MC3 LNP repeat dose day 0 and day 3, ApoE, measured day 7; 22.62% in the comparison without repeat dosing.
The target in series [2] is CD19 on Raji cells (B cell lymphoma line, Burkitt's Lymphoma) (UniProt P15391). Kind of series: cell-based or functional assay.
Chain of UniProt P15391 (P15391 20-556 limits assumed): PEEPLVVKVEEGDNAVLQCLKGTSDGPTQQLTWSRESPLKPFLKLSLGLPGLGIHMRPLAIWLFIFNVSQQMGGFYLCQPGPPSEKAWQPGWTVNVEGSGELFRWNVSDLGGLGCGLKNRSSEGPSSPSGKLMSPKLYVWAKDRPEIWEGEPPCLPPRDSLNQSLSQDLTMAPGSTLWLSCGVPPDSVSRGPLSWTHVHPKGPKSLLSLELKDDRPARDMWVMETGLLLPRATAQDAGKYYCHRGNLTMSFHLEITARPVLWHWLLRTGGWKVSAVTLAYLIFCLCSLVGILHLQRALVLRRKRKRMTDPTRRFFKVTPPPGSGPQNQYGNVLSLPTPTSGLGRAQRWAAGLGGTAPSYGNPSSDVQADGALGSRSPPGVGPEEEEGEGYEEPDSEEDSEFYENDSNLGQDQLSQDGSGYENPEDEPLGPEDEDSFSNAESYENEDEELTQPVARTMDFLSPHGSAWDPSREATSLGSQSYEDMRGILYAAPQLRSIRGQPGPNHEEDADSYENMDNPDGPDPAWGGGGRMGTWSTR

Turning to “B2M 13-14 recognition sequence (B2M gene)”, in series [1], the activity (% B2M knockout) worked out at 26.4.
On to “anti-CD19 CAR (FMC63) expressed on human donor T cells after AAV6-7206 transduction”, for which, in series [2], the killing of CD19+ Raji cells in 16 h co-culture (CAR T cells made with AAV added 0-24 hours after LNP) came to 99% and the killing of CD19+ Raji cells in 16 h co-culture (CAR T cells made with AAV added 24-48 hours after LNP) worked out at 94%.
